How the values were obtained:
[1] = In vitro DTNB thiolase activity assay on clarified cell lysates, butyryl-CoA substrate; type: biochemical; settings: lysate of BL21 E. coli expressing the thiolase; 0.5 mM butyryl-CoA, 0.2 mM acetyl-coA, 0.5 mM DTNB, pH 7.4, 412 nm; no-substrate background subtracted; triplicate
Procedure: (§1) Plasmids containing the optimized thiolase genes were transformed into BL21 E. coli cells. Empty plasmid pTrcHisA was also transformed as a negative control. For expression and characterization experiments, shake flasks containing 40 mL TB were innoculated at 5% from overnight cultures. Flasks were incubated at 30° C. at 250 rpm shaking for 2 hours, then protein production was induced with 0.2 mM IPTG and incubated for 4 more hours at 30° C. while shaking. Cells were harvested by centrifugation and pellets were stored at −80° C.
(§2) Activity of thiolase candidates were assessed with an in vitro assay using DTNB (5,5′-Dithiobis(2-nitrobenzoic acid)) as an indicator. The enzyme activity was tested using two different substrates: crotonoyl-CoA and butyryl-CoA. The DTNB interacts with the free thiol created by the condensation of acetyl-CoA and the substrate present (butyryl-CoA or crotonoyl-CoA). Unless otherwise specified, all chemicals were purchased from Sigma-Aldrich Chemical Company, ST. Louis, Mo.
(§3) Cells were lysed using mechanical disruption using a BeadBeater (BioSpec products, Bartlesville, Okla.) using the manufacturer's instructions. The cell lysate was partially clarified by centrifugation (14,000 G for 5 minutes). Protein concentrations of the resulting clarified lysates were measured via BioRad Total Protein assay using the manufacturer's instructions. Lysates were normalized by protein concentration by dilution in 10 mM Tris buffer. The normalized lysates were diluted 1 to 5 in 10 mM Tris buffer. 20 ul of lysate was added to each well for the 96-well plate assay. Each condition was performed in triplicate.
(§4) The reaction mixture contains 10 mM Tris pH 7.4, 5 mM MgSO4, 0.2 mM acetyl-coA, 0.5 mM DTNB, 0.5 mM substrate (either butyryl-CoA or crotonoyl-CoA). […] The reactions in these microplates were monitored at 412 nm. Readings were taken every 9 seconds for 5 minutes and the data was used to calculate activities of each enzyme. The reactions using crotonoyl-CoA as substrate required a 60 sec incubation period before rates were able to be measured.

[2] = In vitro DTNB thiolase activity assay on clarified cell lysates, crotonoyl-CoA substrate; type: biochemical; settings: lysate of BL21 E. coli expressing the thiolase; 0.5 mM crotonoyl-CoA, 0.2 mM acetyl-coA, 0.5 mM DTNB, pH 7.4, 412 nm; 60 sec incubation before measurement; no-substrate background subtracted; triplicate
Procedure: as §1, §2, §3, §4

Q: Which results are given for “thl: acetyl-CoA acetyltransferase, E. coli optimized thl sequence originally from Clostridium acetobutylicum ATCC 824, SEQ ID NOS 5 and 6”?
A: Average Activity with background subtracted, Butyryl coenzyme A [1]: 0.039 µmol/min/mg; Average Activity with background subtracted, Crotonoyl coenzyme A [2]: 0.0021 µmol/min/mg

B1: phaA: acyltransferase, E. coli optimized PhaA sequence originally from Ralstonia sp., EC 2.3.1.9, SEQ ID NOS 3 and 4 (protein)
chain: MTDVVIVSAARTAVGKFGGSLAKIPAPELGAVVIKAALERAGVKPEQVSEVIMGQVLTAGSGQNPARQAAIKAGLPAMVPAMTINKVCGSGLKAVMLAANAIMAGDAEIVVAGGQENMSAAPHVLPGSRDGFRMGDAKLVDTMIVDGLWDVYNQYHMGITAENVAKEYGITREAQDEFAVGSQNKAEAAQKAGKFDEEIVPVLIPQRKGDPVAFKTDEFVRQGATLDSMSGLKPAFDKAGTVTAANASGLNDGAAAVVVMSAAKAKELGLTPLATIKSYANAGVDPKVMGMGPVPASKRALSRAEWTPQDLDLMEINEAFAAQALAVHQQMGWDTSKVNVNGGAIAIGHPIGASGCRILVTLLHEMKRRDAKKGLASLCIGGGMGVALAVERK
modifications: Ralstonia sp., strain EMBL EON20543.1
Q: What does the source list for B1?
A: Average Activity with background subtracted, Butyryl coenzyme A [1]: 0.053 µmol/min/mg; Average Activity with background subtracted, Crotonoyl coenzyme A [2]: 0.0001 µmol/min/mg

B2: bktB: Beta-ketothiolase, E. coli optimized bktB sequence originally from Cupriavidus necator ATCC 17699, SEQ ID NOS 1 and 2 (protein)
chain: MTREVVVVSGVRTAIGTFGGSLKDVAPAELGALVVREALARAQVSGDDVGHVVFGNVIQTEPRDMYLGRVAAVNGGVTINAPALTVNRLCGSGLQAIVSAAQTILLGDTDVAIGGGAESMSRAPYLAPAARWGARMGDAGLVDMMLGALHDPFHRIHMGVTAENVAKEYDISRAQQDEAALESHRRASAAIKAGYFKDQIVPVVSKGRKGDVTFDTDEHVRHDATIDDMTKLRPVFVKENGTVTAGNASGLNDAAAAVVMMERAEAERRGLKPLARLVSYGHAGVDPKAMGIGPVPATKIALERAGLQVSDLDVIEANEAFAAQACAVTKALGLDPAKVNPNGSGISLGHPIGATGALITVKALHELNRVQGRYALVTMCIGGGQGIAAIFERI
modifications: Cupriavidus necator
Q: Which “Average Activity with background subtracted, Butyryl coenzyme A” value [1] does the source give for B2 here?
A: Its value is 0.069 µmol/min/mg.

Q: What about the “Average Activity with background subtracted, Crotonoyl coenzyme A” value [2] of the same molecule?
A: Its value is 0.0043 µmol/min/mg.

Source: US9809833B2, “Pathways to adipate semialdehyde and other organic products” (BioAmber Inc., priority 2012, dated 2017)
